Tests used:
human DLL3-His = molecular target: T1, human DLL3-His (human, UniProt Q9NYJ7 27-492); assay: SPR (Biacore 8K), 37 C, m5E7 captured on anti-mouse Fc, DLL3-His 0.411-300 nM injected, 1:1 fit
T1 construct: also called hDLL3
T1 sequence: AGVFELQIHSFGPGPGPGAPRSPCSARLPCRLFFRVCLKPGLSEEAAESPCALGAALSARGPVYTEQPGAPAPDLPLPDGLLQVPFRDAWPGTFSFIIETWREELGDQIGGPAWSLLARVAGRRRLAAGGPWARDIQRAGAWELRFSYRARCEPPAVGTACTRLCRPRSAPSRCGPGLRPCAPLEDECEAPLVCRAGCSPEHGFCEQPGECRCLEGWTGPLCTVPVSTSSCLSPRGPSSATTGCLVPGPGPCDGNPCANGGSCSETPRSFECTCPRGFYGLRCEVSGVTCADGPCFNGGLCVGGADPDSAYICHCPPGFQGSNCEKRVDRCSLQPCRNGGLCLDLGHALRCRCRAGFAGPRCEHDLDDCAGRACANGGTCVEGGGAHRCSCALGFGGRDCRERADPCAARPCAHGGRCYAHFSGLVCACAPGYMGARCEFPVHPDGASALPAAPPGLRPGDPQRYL
Description: The kinetics of binding of different humanized variants and parental murine 5E7 antibody to human DLL3-His was studied by Surface Plasmon Resonance using a Biacore 8K instrument. Briefly, anti-hFc and anti-mFc IgG proteins were covalently immobilized onto different channels of CMS chip to allow simultaneous analysis of human and murine antibodies. m5E7 was captured on the anti-mouse Fc channel and humanized variants were captured on the anti-human Fc channel at a desired capture level of […] in HBS-EP+ buffer supplemented with 0.1% BSA. Three buffer blanks and human DLL3-His (analyte) at concentrations 0.411-300 nM (in three fold dilutions) were injected over the surface with captured murine or humanized 5E7 for 300 second association time and let dissociate for 600 second at a flow rate of 30 μL/min. The surfaces were subjected to regeneration with three 20-second pulses of 10 mM glycine pH 1.70 at a flow rate of 100 μL/min between every concentration of analyte. The experiment was conducted at 37° C. Data were double referenced and a 1:1 fit model was applied to the sensorgrams in the Biacore Insight Evaluation software.
The kinetic parameters of human DLL3-His binding to murine and humanized variants of 5E7 antibody variants were calculated and shown in Table 39.

[1] = molecular target: T2, recombinant human DLL3 (ELISA coat) (human, UniProt Q9NYJ7 27-492); assay: ELISA, plate coated with recombinant human DLL3 0.5 µg/ml, anti-mouse IgG-HRP
T2 sequence: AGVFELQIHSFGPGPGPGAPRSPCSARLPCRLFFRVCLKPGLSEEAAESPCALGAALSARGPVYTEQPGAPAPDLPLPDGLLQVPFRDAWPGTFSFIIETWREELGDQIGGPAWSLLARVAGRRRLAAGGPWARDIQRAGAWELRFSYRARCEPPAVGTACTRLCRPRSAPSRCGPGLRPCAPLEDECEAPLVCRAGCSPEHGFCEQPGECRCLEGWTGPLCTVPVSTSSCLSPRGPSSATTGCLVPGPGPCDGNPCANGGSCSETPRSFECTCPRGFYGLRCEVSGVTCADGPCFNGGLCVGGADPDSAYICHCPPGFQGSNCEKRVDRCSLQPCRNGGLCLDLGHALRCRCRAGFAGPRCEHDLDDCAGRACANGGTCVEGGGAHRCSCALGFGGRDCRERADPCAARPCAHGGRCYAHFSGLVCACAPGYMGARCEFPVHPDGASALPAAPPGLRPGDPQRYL
Summary of the method: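 Antibody binding measured on plates coated with recombinant human DLL3 at 0.5 μg/ml, detected with anti-mouse IgG-HRP and TMB substrate. Signals normalized to the matching positive control antibody; EC₅₀ calculated from binding curves.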

recombinant human DLL1 = molecular target: T3, recombinant human DLL1 (human, UniProt O00548 18-540, limits assumed); assay: ELISA, plate-bound recombinant human DLL1 (1 µg/mL), anti-mouse IgG-HRP/TMB, % of positive control max
T3 sequence (looked up): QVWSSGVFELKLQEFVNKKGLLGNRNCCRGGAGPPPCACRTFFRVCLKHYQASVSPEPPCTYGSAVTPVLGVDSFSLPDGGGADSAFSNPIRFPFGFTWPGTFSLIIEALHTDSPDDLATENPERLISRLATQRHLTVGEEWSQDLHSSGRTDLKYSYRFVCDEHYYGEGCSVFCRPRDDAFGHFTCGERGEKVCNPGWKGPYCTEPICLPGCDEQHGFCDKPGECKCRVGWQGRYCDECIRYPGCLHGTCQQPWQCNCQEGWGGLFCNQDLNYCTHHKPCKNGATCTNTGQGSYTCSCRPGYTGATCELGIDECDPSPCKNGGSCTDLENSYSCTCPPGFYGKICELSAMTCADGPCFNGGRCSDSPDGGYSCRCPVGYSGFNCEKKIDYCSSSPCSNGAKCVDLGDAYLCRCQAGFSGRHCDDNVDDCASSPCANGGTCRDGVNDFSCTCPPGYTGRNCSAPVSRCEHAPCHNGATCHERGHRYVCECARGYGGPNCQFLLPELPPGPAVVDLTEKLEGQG
Summary of the method: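 Binding read by anti-mouse IgG-HRP with TMB substrate against wells coated with recombinant human DLL1 (1 μg/ml) or DLL4 (0.5 μg/ml) to test cross-reactivity of anti-DLL3 antibodies. Signals normalized to the corresponding positive control antibody.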

[2] = molecular target: T4, extracellular domain (ECD) of human DLL3 (AdipoGen Life Sciences) (human, UniProt Q9NYJ7 27-492); assay: SPR (Biacore 8K), 37 C, antibody captured on anti-mouse Fc, DLL3 ECD injected, 1:1 fit
T4 construct: Bought and further purified by size exclusion chromatography; also called hDLL3 ECD; DLL3 ECD
T4 sequence: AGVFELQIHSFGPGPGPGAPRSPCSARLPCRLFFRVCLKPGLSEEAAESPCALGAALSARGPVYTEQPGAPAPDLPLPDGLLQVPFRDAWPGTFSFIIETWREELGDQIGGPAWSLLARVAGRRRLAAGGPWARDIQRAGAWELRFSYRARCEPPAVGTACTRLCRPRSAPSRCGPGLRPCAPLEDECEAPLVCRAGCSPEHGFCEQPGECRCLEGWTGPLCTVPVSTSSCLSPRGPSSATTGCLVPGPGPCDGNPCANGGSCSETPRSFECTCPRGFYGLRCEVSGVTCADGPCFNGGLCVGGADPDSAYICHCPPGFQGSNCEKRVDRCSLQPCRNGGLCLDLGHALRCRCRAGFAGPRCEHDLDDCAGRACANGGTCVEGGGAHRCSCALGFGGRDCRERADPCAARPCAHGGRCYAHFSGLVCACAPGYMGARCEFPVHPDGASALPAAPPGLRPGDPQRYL
Description: The binding kinetics of different anti-DLL3 antibodies to recombinant proteins of different domains of human DLL3 were studied by surface plasmon resonance (SPR) using a Biacore™ 8K instrument. These anti-DLL3 antibodies were produced from mouse hybridomas, and each included a heavy chain variable region and light chain variable region described herein. Briefly, antibodies recognizing human IgG Fc and antibodies recognizing mouse IgG Fc were immobilized on different channels of a Biacore™ 8K chip to allow simultaneous analysis of human and murine anti-DLL3 antibodies. Murine anti-DLL3 antibodies were captured on the anti-mouse Fc channel of the Biacore chip. The human anti-DLL3 antibody from Stemcentrx (San Francisco, Calif.) was used as a control and was captured onto anti-human Fc channel of the Biacore™ chip. Different concentrations of DLL3 ECD, DLL3 N-terminal domain, EGF2-6, EGF3-6, EGF4-6, or EGF5-6 domains of DLL3 were injected. Experiments were performed at 37° C. Biacore™ 8K evaluation software was used for all data analysis. To obtain kinetic rate constants double-referenced data were fit to a 1:1 interaction model using Biacore™ 8K Evaluation software (GE Healthcare, Marlborough, Mass.). The equilibrium binding constant KD was determined by the ratio of binding rate constants kd/kₐ.
Table 36 lists the calculated binding kinetics (KD). […] Stemcentrx anti-DLL3 antibody was used as a control.

B1: murine anti-DLL3 antibody clone 5E7 (antibody, V domains shown)
VH: EVQLQQSGAELVRPGASVKLSCTASGFNIKDDYIHWVKQWPEQGLEWIGWIDSENGDTEYASKFQGKATMTADTSSNTAYLQLSGLTSEDTAVYYCTTSSYYSYDLFVYWGQGTLVTVSA
VL: DVLMTQTPLTLSVPIGQPASISCKSSQSLLHSNGKTYLNWLLQRPGQSPKLLIYLVSKLESGVPDRFSGSGSGTDFTLKISRVEAEDLGVYYCLQTTHLYTFGGGTKLEIK
notes: Murine antibody produced from a mouse hybridoma, captured on anti-mouse Fc in SPR; also called m5E7; murine 5E7
Work on B1 yielded a Kd (human DLL3-His) of 1.22 nM, a koff (human DLL3-His) of 0.00145 s⁻¹ and a kon (human DLL3-His) of 1.19e+06 M⁻¹ s⁻¹. For the same binder, the EC50 [1] was 0.07 nM, the binding result (recombinant human DLL1) was “no binding” and the Kd [2] was 0.203 nM. For the same binder, the koff [2] was 6.47e-05 s⁻¹ and the kon [2] was 319000 M⁻¹ s⁻¹.

Source: US20210221894A1 (DRAGONFLY THERAPEUTICS, published 2021)
